The supplement of paper PMC10567573

B1: OAS1 (parent)
chain: YIGTHEYPHFSHRPSTLQAASTPQ
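Note: lentivirally expressed fusions sorted by FACS into six bins by GFP to DsRed ratio, PSI derived from sequencing read proportions per bin multiplied by bin number.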

Variants of: B1
Assay: protein stability index of a GFP-peptide fusion (GPS, HEK-293T) (PSI 1-6); higher = more stable
Conditions: c terminus: a fixed tail appended
YIGTHEYPHFSHRPSTLEAASTPQ [Q18E] gave a protein stability index of 2.22. YIGFHEYPHFSHRPSTLQAASTPQ [T4F] showed a protein stability index of 2.11. For YIGTHEYPHFSLRPSTLQAASTPQ [H12L], the protein stability index was 2.39. YIGTHEYPHFSHRPSTLQAASTDQ [P23D] showed a protein stability index of 2.15. With YIGEHEYPHFSHRPSTLQAASTPQ [T4E] the protein stability index was 2.55. For YIGTMEYPHFSHRPSTLQAASTPQ [H5M], the protein stability index was 2.14. In the case of YIGTHEYRHFSHRPSTLQAASTPQ [P8R], the protein stability index is reported as 1.63. In the case of YIGTHEYPHFSHRPSTLQAASRPQ [T22R], the protein stability index is reported as 1.68. In the case of YIGTHEYPHFSHRPSTLTAASTPQ [Q18T], the protein stability index is reported as 1.9. Variant YIGTHEYPHFSHRPSTLQAASMPQ [T22M] has a protein stability index of 2.27. With YIGTHEYPHFSHRPSTLQAPSTPQ [A20P] the protein stability index was 1.97. YIGTHLYPHFSHRPSTLQAASTPQ [E6L] showed a protein stability index of 2.99. In the case of YIGTHIYPHFSHRPSTLQAASTPQ [E6I], the protein stability index is reported as 1.75. For YIGTHEYPHFSHRPSTLQAASTPA [Q24A], the protein stability index was 1.66. With YIGTHDYPHFSHRPSTLQAASTPQ [E6D] the protein stability index was 1.92. For YIGTHEYPHFSHRPSTLQAASTPT [Q24T], the protein stability index was 2.04. With YIGTHEYPHFSHKPSTLQAASTPQ [R13K] the protein stability index was 2.12. In the case of YIGTHEYPPFSHRPSTLQAASTPQ [H9P], the protein stability index is reported as 1.44. YIGTHEYPHFSQRPSTLQAASTPQ [H12Q] gave a protein stability index of 2.23. Work on YIGTHEYPHFSHRPSTLQAASTAQ [P23A] yielded a protein stability index of 2.14. YIGTHEYPNFSHRPSTLQAASTPQ [H9N] gave a protein stability index of 2.4. YIGAHEYPHFSHRPSTLQAASTPQ [T4A] gave a protein stability index of 1.86. In the case of YIGYHEYPHFSHRPSTLQAASTPQ [T4Y], the protein stability index is reported as 1.84. Work on YIGTHEYPWFSHRPSTLQAASTPQ [H9W] yielded a protein stability index of 3.41. With YIGTHEYPMFSHRPSTLQAASTPQ [H9M] the protein stability index was 2.33. Work on YIGTHEYPHFSHRPSTLYAASTPQ [Q18Y] yielded a protein stability index of 2.37. YYGTHEYPHFSHRPSTLQAASTPQ [I2Y] showed a protein stability index of 3.27. YIGTHEYPHFSHRPNTLQAASTPQ [S15N] gave a protein stability index of 2.24. YIGCHEYPHFSHRPSTLQAASTPQ [T4C] gave a protein stability index of 2.12. Variant YIGTHEYPHFSGRPSTLQAASTPQ [H12G] has a protein stability index of 1.71. YIGTHEYPHFSHRPSTLQAAQTPQ [S21Q] gave a protein stability index of 2. In the case of YIGTHEYPHFSHRPSTLKAASTPQ [Q18K], the protein stability index is reported as 2.04. In the case of YIGTHEYPHFPHRPSTLQAASTPQ [S11P], the protein stability index is reported as 2.44. In the case of YIGTHEYPRFSHRPSTLQAASTPQ [H9R], the protein stability index is reported as 2.08. YIRTHEYPHFSHRPSTLQAASTPQ [G3R] gave a protein stability index of 2.07. YIGTHEYPHFSARPSTLQAASTPQ [H12A] showed a protein stability index of 1.97. YIGTHEYPHFSNRPSTLQAASTPQ [H12N] gave a protein stability index of 2.12. YIGTNEYPHFSHRPSTLQAASTPQ [H5N] showed a protein stability index of 2.03. Work on YIGTHEYPHFSHRASTLQAASTPQ [P14A] yielded a protein stability index of 1.81. Work on YIGTHEYPHFSHRPSTLCAASTPQ [Q18C] yielded a protein stability index of 2.08. YIGTHWYPHFSHRPSTLQAASTPQ [E6W] showed a protein stability index of 3.29. Variant YIGTHEYPHFSHRPSTLQDASTPQ [A19D] has a protein stability index of 2.3. In the case of YIGTHEYPHFSHRPSTLSAASTPQ [Q18S], the protein stability index is reported as 1.65. In the case of YIGTHEYPHFSHRPSTLQAASTTQ [P23T], the protein stability index is reported as 2.48. Variant YIGTHEYPHFSHRPQTLQAASTPQ [S15Q] has a protein stability index of 1.99. YIGTWEYPHFSHRPSTLQAASTPQ [H5W] showed a protein stability index of 2.29. YIGTHEYPHFSHRPSTLQAASTPE [Q24E] gave a protein stability index of 2.25. In the case of YIGTEEYPHFSHRPSTLQAASTPQ [H5E], the protein stability index is reported as 2.53. For YIGTHEYPHFSHRPSTLQAARTPQ [S21R], the protein stability index was 2. In the case of YIGTHEYPHFSHRPSTLQAATTPQ [S21T], the protein stability index is reported as 2.07. YIGTHEYPHFDHRPSTLQAASTPQ [S11D] gave a protein stability index of 2.64. In the case of YIGTHEYPHISHRPSTLQAASTPQ [F10I], the protein stability index is reported as 2.27. Variant YIGTHEYPHFSHRPSTLQAASAPQ [T22A] has a protein stability index of 2.51. YIGTHEYPHFSHRISTLQAASTPQ [P14I] gave a protein stability index of 1.72. With YIGTHEYPHFSHRPSTLQWASTPQ [A19W] the protein stability index was 1.28. YIGTHEYPHDSHRPSTLQAASTPQ [F10D] gave a protein stability index of 3.14. In the case of YIGTHEYPHFSHRPSTLQAASQPQ [T22Q], the protein stability index is reported as 2.31. Work on YIGNHEYPHFSHRPSTLQAASTPQ [T4N] yielded a protein stability index of 2.2. In the case of YIGTHEYPHFSHRPLTLQAASTPQ [S15L], the protein stability index is reported as 1.69. For YIGTHEYPHFSHRPSTLQAASTPY [Q24Y], the protein stability index was 2.4. Work on YIGTHEYPHFSHRPSTLQAASTPI [Q24I] yielded a protein stability index of 1.92. YIGTHEYPHFCHRPSTLQAASTPQ [S11C] gave a protein stability index of 2.65. With YVGTHEYPHFSHRPSTLQAASTPQ [I2V] the protein stability index was 2.61. For MIGTHEYPHFSHRPSTLQAASTPQ [Y1M], the protein stability index was 3.66. For YIGTHEYPHFSHRPSTLQARSTPQ [A20R], the protein stability index was 1.82. In the case of YIGTHEYPHLSHRPSTLQAASTPQ [F10L], the protein stability index is reported as 2.53. With YIGTHEYPHFSHRPSTDQAASTPQ [L17D] the protein stability index was 2.41. Work on RIGTHEYPHFSHRPSTLQAASTPQ [Y1R] yielded a protein stability index of 3.84. In the case of YRGTHEYPHFSHRPSTLQAASTPQ [I2R], the protein stability index is reported as 3.68. With YWGTHEYPHFSHRPSTLQAASTPQ [I2W] the protein stability index was 2.66. In the case of FIGTHEYPHFSHRPSTLQAASTPQ [Y1F], the protein stability index is reported as 1.49. For YIGTHEYPHFSHRPSDLQAASTPQ [T16D], the protein stability index was 2.13. Variant YIGTHEYPHFSHRPSTWQAASTPQ [L17W] has a protein stability index of 2.01. In the case of YIYTHEYPHFSHRPSTLQAASTPQ [G3Y], the protein stability index is reported as 1.6. For YIGTHEYPHFSHRPSTLQAASSPQ [T22S], the protein stability index was 1.38. YIGTHEYPHFSHRPKTLQAASTPQ [S15K] showed a protein stability index of 1.82. With DIGTHEYPHFSHRPSTLQAASTPQ [Y1D] the protein stability index was 4.09. In the case of YIGGHEYPHFSHRPSTLQAASTPQ [T4G], the protein stability index is reported as 2.27. Variant YIGTHECPHFSHRPSTLQAASTPQ [Y7C] has a protein stability index of 2.49. For YIGTHEYPHFSHRPTTLQAASTPQ [S15T], the protein stability index was 1.94. For YIGTHEYPHFSHRWSTLQAASTPQ [P14W], the protein stability index was 2.81. Work on YIGTHEYPHFSPRPSTLQAASTPQ [H12P] yielded a protein stability index of 2.15. For YIGTHEYPHFSHMPSTLQAASTPQ [R13M], the protein stability index was 2.19. YIGTSEYPHFSHRPSTLQAASTPQ [H5S] gave a protein stability index of 1.94. For YIGTHEYPHFSHRPSTLQAASTPC [Q24C], the protein stability index was 1.69. YILTHEYPHFSHRPSTLQAASTPQ [G3L] showed a protein stability index of 2.19. In the case of YIGTHEYPHFSHQPSTLQAASTPQ [R13Q], the protein stability index is reported as 1.99. CIGTHEYPHFSHRPSTLQAASTPQ [Y1C] showed a protein stability index of 3.33. YIGTHEYPHFNHRPSTLQAASTPQ [S11N] showed a protein stability index of 2.31. With YIGTHEYPHFSHRPSTLQAASCPQ [T22C] the protein stability index was 1.62. YIGTHEYPHFSHRPATLQAASTPQ [S15A] gave a protein stability index of 2.13. Variant YIGTHEYPHFSHRPSTLQQASTPQ [A19Q] has a protein stability index of 2.04. For YIGTHEYPHFSHFPSTLQAASTPQ [R13F], the protein stability index was 1.33. Work on YIGTHEYPHFSHRPYTLQAASTPQ [S15Y] yielded a protein stability index of 1.79.
